Among the data in the RNAGym collection of RNA variant scans (doi:10.7554/elife.80360) are self-cleavage values, retold here.

The labels stand for the following.
B1: Twister Ribozyme (parent)
chain: AACACUGCCAAUGCCGGUCCCAAGCCCGGAUAAAAGUGGAGGGGGCGG

Variants of B1 are the subject of this series. The series can be described thus: self-cleavage, relative activity (ratio to wild type); higher = more cleavage; co-transcriptional.
In the case of A1C C15U, the self-cleavage stood at 0.153.
Consider A1C C15A, for which the self-cleavage came out at 0.179.
Regarding A1G A33C, the self-cleavage came to 0.462.
Next, A1U C21A: 0.0801; A1U A22U: 0.0726.
Next, A1U A22G: 0.0451; A2C C25G: 0.0416; A2C C25U: 0.0669.
Next, A1G G29U: 0.358; A1U C14U: 0.08; A1G A35U: 0.447.
In the case of A1G A35G, the self-cleavage was determined as 0.326.
For the variant A2C C8A, the self-cleavage worked out at 0.0745.
Under A2C C8U stands 0.0384; under A1C A35C, 0.161.
Under A1C A35G stands 0.186; under A1C A35U, 0.129.
Take A1G G7A: the self-cleavage was 0.216.
A1G G7U: the self-cleavage came out at 0.137.
Consider A1G A2G, for which the self-cleavage was 1.19.
Under A1C C20U stands 0.187; under A1C C20G, 0.0894.
Turning to A1C A33U, the self-cleavage worked out at 0.268.
On to A2C C27U, for which the self-cleavage came to 0.0597.
For the variant A2C C27G, the self-cleavage stood at 0.0549.
Regarding A2G A40G, the self-cleavage is 0.0967.
Under A2G A40U stands 0.107.
Next, A2G A40C: 0.138; A1U G47C: 0.068; A1G C20U: 0.35.
For the variant A1G C20A, the self-cleavage is 0.273.
Regarding A1C C8A, the self-cleavage was determined as 0.196.
On to A1C C8U, for which the self-cleavage came to 0.193.
As to A1C C5G, the self-cleavage is 0.227.
As to A1C C5A, the self-cleavage turned out to be 0.198.
Take A2G C5U: the self-cleavage amounted to 0.153.
Take A2G C5G: the self-cleavage stood at 0.144.
Under A2G C5A stands 0.0588; under A2G C27G, 0.138; under A2G C27U, 0.218.
On to A1U C5U, for which the self-cleavage was 0.076.
In the case of A1U C5A, the self-cleavage worked out at 0.0587.
In the case of A2C G48A, the self-cleavage was 0.0475.
Take A2C G48U: the self-cleavage was found to be 0.0976.
As to A1C G43A, the self-cleavage turned out to be 0.135.
Consider A1C G43C, for which the self-cleavage is 0.141.
Under A1U G36C stands 0.0449; under A1U G36U, 0.0701; under A1G C19A, 0.247.
Consider A1C G17U, for which the self-cleavage worked out at 0.166.
Consider A1C G17A, for which the self-cleavage was found to be 0.172.
Next, A1C G13A: 0.12; A1G G16C: 0.561.
For A1U A4C, the self-cleavage worked out at 0.0725.
As to A2C A10G, the self-cleavage came out at 0.151.
As to A2G A11G, the self-cleavage is 0.164.
For the variant A1G A30U, the self-cleavage was 0.436.
Turning to A1G A30C, the self-cleavage was 0.198.
Under A2C C14G stands 0.0512; under A2C C14A, 0.0856.
Regarding A1U G7A, the self-cleavage was determined as 0.0601.
A1U G7U: the self-cleavage was found to be 0.059.
A1U A35U: the self-cleavage was found to be 0.0666.
For the variant A1U A2U, the self-cleavage was 0.0794.
Next, A1G A10U: 0.428; A1G A10G: 0.438; A1U C15U: 0.0337.
Regarding A1U G42C, the self-cleavage amounted to 0.0572.
For A2G A32C, the self-cleavage came out at 0.414.
For A2G A32G, the self-cleavage came out at 0.317.
For the variant A2G A32U, the self-cleavage stood at 0.401.
As for A1U G13U, the self-cleavage is 0.0563.
Take A1U G13C: the self-cleavage came to 0.0521.
Consider A1U G13A, for which the self-cleavage stood at 0.0679.
As for A1U U6C, the self-cleavage was 0.0726.
For A1U U6G, the self-cleavage came out at 0.107.
Take A1U U6A: the self-cleavage worked out at 0.0513.
Next, A2C A35U: 0.0477; A2G C21G: 0.215.
Take A2G C21A: the self-cleavage amounted to 0.0688.
Next, A1G C9A: 0.226; A1U A40C: 0.0671.
For the variant A2C A11U, the self-cleavage was found to be 0.108.
Under A2C A11C stands 0.0419; under A1G C25U, 0.222.
With A1C G36C, the self-cleavage stood at 0.159.
Take A1C U31G: the self-cleavage came to 0.144.
For the variant A1C U31A, the self-cleavage was 0.168.
Consider A1U G28A, for which the self-cleavage turned out to be 0.0517.
For the variant A2C C9A, the self-cleavage is 0.0489.
Consider A2C C9G, for which the self-cleavage worked out at 0.0449.
On to A1G G38U, for which the self-cleavage is 0.211.
As to A1G G38C, the self-cleavage turned out to be 0.304.
As to A2C C3U, the self-cleavage was 0.0628.
In the case of A2C C3A, the self-cleavage came to 0.101.
With A1C U12A, the self-cleavage stood at 0.223.
Take A1C U12G: the self-cleavage stood at 0.143.
For A2G C19A, the self-cleavage was 0.0723.
For A2C G39C, the self-cleavage amounted to 0.105.
In the case of A2C G39A, the self-cleavage worked out at 0.0656.
As to A2C G13A, the self-cleavage was found to be 0.0468.
Turning to A1U G38A, the self-cleavage was determined as 0.0686.
As for A1U G38C, the self-cleavage worked out at 0.0576.
Turning to A1U G43U, the self-cleavage is 0.0499.
Take A1U G43A: the self-cleavage was determined as 0.0467.
Next, A2G C25U: 0.128; A1U U31C: 0.0703; A1G C5G: 0.172.
For A1G G48C, the self-cleavage came to 0.524.
Regarding A2G G42C, the self-cleavage amounted to 0.157.
On to A2G A4U, for which the self-cleavage turned out to be 0.117.
For A2G A4C, the self-cleavage was 0.0432.
Regarding A1U G29C, the self-cleavage came out at 0.0876.
As to A1U G29U, the self-cleavage stood at 0.0849.
Take A1G A23C: the self-cleavage came out at 0.202.
A1U G45A: the self-cleavage came out at 0.0481.
Regarding A1U C19G, the self-cleavage was 0.0665.
Under A1U C19A stands 0.0579; under A1U C19U, 0.0395; under A1C C46U, 0.18.
Regarding A1C C46G, the self-cleavage amounted to 0.181.
With A2C C5G, the self-cleavage turned out to be 0.0784.
As for A2C C5A, the self-cleavage came out at 0.0506.
Take A1U A10G: the self-cleavage amounted to 0.0651.
Regarding A1C G38C, the self-cleavage was found to be 0.22.
As for A1C G38A, the self-cleavage came out at 0.189.
Turning to A1G, the self-cleavage came out at 0.461.
A1C: the self-cleavage was 0.175.
Take A1U: the self-cleavage amounted to 0.0597.
As for A1U G24U, the self-cleavage worked out at 0.0764.
Take A1U G24C: the self-cleavage was determined as 0.0779.
With A1U G16C, the self-cleavage came to 0.0739.
For the variant A1U G16A, the self-cleavage stood at 0.0911.
For the variant A2G G38U, the self-cleavage came to 0.125.
Take A1C C19G: the self-cleavage was found to be 0.187.
Regarding A1G C3G, the self-cleavage was 0.274.
Under A1G C3U stands 0.294; under A2C C15A, 0.051; under A2C C15G, 0.0398.
As to A2G C3U, the self-cleavage is 0.0609.
For A2C A30G, the self-cleavage was determined as 0.105.
Next, A2C A30U: 0.0662; A1U C8G: 0.0353; A1U C8U: 0.087.
As to A1U C8A, the self-cleavage was determined as 0.0697.
A1U A34G: the self-cleavage worked out at 0.0704.
For the variant A1U A34U, the self-cleavage was found to be 0.0731.
Take A2G G29U: the self-cleavage came to 0.344.
Under A2G G29A stands 0.214.
Take A2G G29C: the self-cleavage was found to be 0.188.
For the variant A1G C21A, the self-cleavage worked out at 0.157.
In the case of A1C A4C, the self-cleavage came out at 0.171.
Under A1C A4G stands 0.131; under A2C C21A, 0.0892; under A1G G13U, 0.129.
Consider A1G G13C, for which the self-cleavage was found to be 0.223.
Consider A2G G28U, for which the self-cleavage came out at 0.286.
In the case of A2G G28C, the self-cleavage was 0.241.
For the variant A1U A32C, the self-cleavage came to 0.057.
For the variant A1U A32U, the self-cleavage stood at 0.0613.
On to A1U A32G, for which the self-cleavage was found to be 0.0499.
Next, A1G A40C: 0.218; A1G A40U: 0.204; A2C G36C: 0.0351.
Turning to A1U C20G, the self-cleavage amounted to 0.112.
Consider A1U C20U, for which the self-cleavage turned out to be 0.0599.
Take A1G G45U: the self-cleavage is 0.274.
